{"source": "paper PMC5412568", "about": "(The Journal of Cell Biology, 2017)", "binders": {"B1": {"name": "cytoDATL (aa 1-415) G343C, K320T (domain or fragment)", "chain": "MGGSAVQVINASEEHTFVLNEDALSEVLMRDEVKDRFVCVVSVAGAFRKGKSFLLDFFLRYMYSKYVHHDATDWLGGESDPLEGFSWRGGSERDTTGILMWSDIFLHDYPNGDKIAIILLDTQGAFDSQSTVRDCATVFALSTMLSSVQIYNLSQNIQEDDLQHLQLFTEYGRLALADTGKKPFQRLQFLVRDWSFPYEAEYGALGGDKILKRRLEVSDKQHPELQSLRRHISSCFTEVACFLMPHPGLNVATNPKFDGRLQDITPEFKSSLRSLVPMLLAPDNLVYKEISGQRVRARDLIQYFQSYMNIYKGNELPEPTSMLVATAEANHLTAVAAAKELYCQLMEEVCGGTRPYLSTAHLQTEHLRVKDKALFQFAAKRKMGGEEFTEKFRKQLEDDLEEVFTNYQAHNESKN", "modifications": "Cy3 maleimide on the engineered cysteine G343C in the PIFE assays; unlabelled in cross-linking"}, "B2": {"name": "cytoDATL (aa 1-415) G343C, K320E, E328R (domain or fragment)", "chain": "B1 chain with T320E, E328R", "modifications": "Cy3 maleimide on the engineered cysteine G343C"}, "B3": {"name": "cytoDATL (aa 1-415) G343C, K320G (domain or fragment)", "chain": "B1 chain with T320G", "modifications": "Cy3 maleimide on the engineered cysteine G343C in the PIFE assays; unlabelled in cross-linking"}, "B4": {"name": "cytoDATL (aa 1-415) G343C, K320M (domain or fragment)", "chain": "B1 chain with T320M", "modifications": "Cy3 maleimide on the engineered cysteine G343C in the PIFE assays; unlabelled in cross-linking"}, "B5": {"name": "cytoDATL (aa 1-415) G343C, P317G (domain or fragment)", "chain": "B1 chain with P317G, T320K", "modifications": "Cy3 maleimide on the engineered cysteine G343C in the PIFE assays; unlabelled in cross-linking"}, "B6": {"name": "cytoDATL (aa 1-415) K320G with mCerulean3 at the C terminus (domain or fragment)", "chain": "B1 chain with T320G, C343G"}, "B7": {"name": "cytoDATL (aa 1-415) G343C, K320N (domain or fragment)", "chain": "B1 chain with T320N", "modifications": "Cy3 maleimide on the engineered cysteine G343C in the PIFE assays; unlabelled in cross-linking"}}, "key": {"[1]": {"molecular_target": "the molecule itself", "assay": "protein-induced fluorescence enhancement"}, "[2]": {"molecular_target": "the molecule itself", "assay": "protein-induced fluorescence enhancement", "remark": "listed apart in the source"}, "[3]": {"molecular_target": "cytoDATL (aa 1-415) K320G with super YFP at the C terminus (D. melanogaster, UniProt Q9VC57 1-415, K320G)", "assay": "FRET or BRET"}}, "note": "Substitutions are numbered along the chain they refer to. Names may count otherwise. Where two headings read alike, the source gives them in different places."}
{"binder": "B1", "values": [{"measurement": "binding result", "setting": "[1]", "value": "binds"}]}
{"binder": "B2", "values": [{"measurement": "binding result", "setting": "[2]", "value": "binds"}]}
{"binder": "B3", "values": [{"measurement": "binding result", "setting": "[1]", "value": "binds"}]}
{"binder": "B4", "values": [{"measurement": "binding result", "setting": "[1]", "value": "binds"}]}
{"binder": "B5", "values": [{"measurement": "binding result", "setting": "[1]", "value": "binds"}]}
{"binder": "B6", "values": [{"measurement": "binding result", "setting": "[3]", "value": "binds"}]}
{"binder": "B7", "values": [{"measurement": "binding result", "setting": "[1]", "value": "binds"}]}
